Laboratory results reported in patent US20160280792A1 (Kyowa Kirin, published 2016).

Experiments:
[1] = biological target: T1, IL-3Rα/GM-CSFRα chimeric protein, B domain of IL-3Rα replaced by that of GM-CSFRα, on HEK293T cells (human, UniProt P15509 115-213); assay: flow cytometry, labelled antibody at 1 µg/ml, HEK293T cells expressing the construct
T1 construct: domain: B domain; The KpnI sites (GGTACC) at both junctions each encode an extra Gly-Thr; also called B domain substitution
T1 sequence: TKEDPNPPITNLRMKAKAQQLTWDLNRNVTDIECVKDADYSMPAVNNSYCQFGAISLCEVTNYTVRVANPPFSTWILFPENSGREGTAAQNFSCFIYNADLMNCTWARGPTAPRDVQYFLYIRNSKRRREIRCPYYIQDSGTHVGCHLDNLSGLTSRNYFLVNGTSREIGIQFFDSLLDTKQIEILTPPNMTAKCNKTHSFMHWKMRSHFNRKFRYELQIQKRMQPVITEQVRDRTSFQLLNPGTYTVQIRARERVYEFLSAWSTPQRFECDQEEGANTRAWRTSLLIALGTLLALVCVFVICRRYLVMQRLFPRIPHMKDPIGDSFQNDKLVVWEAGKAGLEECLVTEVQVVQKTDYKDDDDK
Method: (§1) HEK293T cell (ATCC CRL 1268) was used for the preparation of the IL-3Rα/GM-CSFRα chimeric protein expression cell. Using 293Fectin (Invitrogen), the plasmid DNA obtained in the above was introduced as an expression vector into the HEK293T. The HEK293T to which the expression vector was introduced was cultured using a shaker under conditions of 5% CO₂ and 37° C. after 2 days of the introduction, the […] was used for in the flow cytometry analysis.
(§2) From 100,000 to 1,000,000 cells of the chimeric protein expression cell were allowed to react for 30 minutes on ice with at a concentration of 1 μg/ml with an AlexaFlour488-labeled human antibody or a commercially available FITC-labeled anti-IL-3Rα mouse antibody (7G3 or 9F5: both from BD Biosciences, 6H6: Acris Antibodies, AC145: Milteny Biotech, 107D2.08: Dendritics). A staining medium (Dulbecco's PBS supplemented with 2% fetal bovine serum, 2 mM EDTA and 0.05% NaN₃) was used for the dilution of antibodies and cells. Next, the cells reacted with antibodies were washed three times with the staining medium and whether the labeled antibody bound to the cell was confirmed by flow cytometry.

[2] = biological target: T2, IL-3Rα/GM-CSFRα chimeric protein, C domain of IL-3Rα replaced by that of GM-CSFRα, on HEK293T cells (human, UniProt P15509 214-327); assay: as above
T2 construct: domain: C domain; KpnI sites at both junctions each encode an extra Gly-Thr; also called C domain substitution
T2 sequence: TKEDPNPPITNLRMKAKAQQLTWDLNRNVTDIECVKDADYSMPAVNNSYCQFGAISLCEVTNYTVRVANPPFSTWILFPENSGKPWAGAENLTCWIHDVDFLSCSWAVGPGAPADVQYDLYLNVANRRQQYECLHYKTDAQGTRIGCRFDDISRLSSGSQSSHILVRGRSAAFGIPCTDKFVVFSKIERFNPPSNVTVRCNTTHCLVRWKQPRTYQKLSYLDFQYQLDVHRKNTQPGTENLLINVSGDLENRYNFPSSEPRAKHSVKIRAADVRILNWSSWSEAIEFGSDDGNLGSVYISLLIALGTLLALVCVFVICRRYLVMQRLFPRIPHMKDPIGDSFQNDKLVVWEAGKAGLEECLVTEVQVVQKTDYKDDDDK
Method: as §1, §2

[3] = biological target: T3, soluble form of human IL-3Rα protein (extracellular region with C-terminal FLAG tag) (human, UniProt P26951 19-305); assay: SPR (Biacore 2000): antibody captured on anti-human antibody CM5 chip, soluble IL-3Rα as analyte, 1:1 Langmuir fit
T3 construct: Made in CHOras1 cells, purified on anti-FLAG gel; also called soluble form of IL-3Rα protein; soluble form of human IL-3Rα extracellular region
T3 sequence: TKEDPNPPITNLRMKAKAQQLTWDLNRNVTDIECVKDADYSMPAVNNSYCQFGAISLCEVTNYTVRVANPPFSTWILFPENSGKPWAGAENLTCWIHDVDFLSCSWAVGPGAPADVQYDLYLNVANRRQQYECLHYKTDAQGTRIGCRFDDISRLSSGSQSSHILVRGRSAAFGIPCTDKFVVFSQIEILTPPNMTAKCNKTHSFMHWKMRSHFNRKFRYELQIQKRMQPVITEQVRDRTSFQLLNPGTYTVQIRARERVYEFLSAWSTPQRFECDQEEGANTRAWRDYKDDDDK
Method: Specifically, CM5 (research grade) was used for a sensor tip (each GE). Firstly, the CM5 tip was activated by applying an equivalent mixture of 400 mM EDC (N-ethyl-N′-(3-dimethylaminopropyl)carbodiimidehydrochloride) and 100 mM NHS (N-hydroxysuccinimide) to the CM5 tip. Next, an antibody to the human antibody attached to the Human Antibody Capture Kit (GE) (hereinafter, referred to as anti-human antibody antibody) was diluted with the solution attached to the kit and applied thereto, thereby immobilizing the required amount of the anti-human antibody antibody to the CM5 tip. Regarding the mouse antibody to be used as a control, an antibody to the mouse antibody attached to the Mouse Antibody Capture Kit (GE) (hereinafter, referred to as anti-mouse antibody antibody) was diluted with the solution attached to the kit and applied thereto, thereby immobilizing a necessary amount thereof to the CM5 tip. Next, the surface of the activated tip was blocked and inactivated by applying 1 M of ethanolamine dihydrochloride thereto. By the above steps until this, preparation of a CM5 sensor tip which can measure the dissociation constant KD was completed.
Next, each of anti-IL-3Rα antibodies, was diluted to give a concentration of 5 μg/ml with HBS-FP buffer (GE) one kind per one flow cell and applied, thereby allowing it to bind to the immobilized anti-human antibody antibody or anti-mouse antibody antibody. Next, the soluble form of IL-3Rα protein was applied thereto. In order to dissociate the bound anti-IL-3Rα antibody and soluble form of IL-3Rα protein, 3 M MgCl₂ attached to Human Antibody Capture Kit or pH 1.7 of Glycine-HCl attached to Mouse Antibody Capture Kit was applied in the amount attached to the kit. The steps until this were regarded as one step. By repeating the same steps using two or more concentrations of the soluble form of IL-3Rα protein, data for calculating association and dissociation constants (sensorgram) were obtained.
In the analysis, Biaevaluation software (GE) was used and Biaevaluation Software Handbook was referred. Specifically, by carrying out simultaneous analysis of kinetics analysis, employing basically the 1:1 Langmuir binding reaction model and fitting, association rate constant (Ka) and dissociation rate constant (Kd) were calculated, and the value of dissociation constant KD was calculated by the calculation of Kd/Ka.

[4] = biological target: T4, IL-3Rα/GM-CSFRα chimeric protein, region 6 (182-ILVRGRS-188) of IL-3Rα replaced by GM-CSFRα sequence, on … (human, UniProt P26951 19-378); assay: flow cytometry, labelled antibody at 1 µg/ml, HEK293T cells expressing the construct
T4 construct: also called Region 6 (B)
T4 chain: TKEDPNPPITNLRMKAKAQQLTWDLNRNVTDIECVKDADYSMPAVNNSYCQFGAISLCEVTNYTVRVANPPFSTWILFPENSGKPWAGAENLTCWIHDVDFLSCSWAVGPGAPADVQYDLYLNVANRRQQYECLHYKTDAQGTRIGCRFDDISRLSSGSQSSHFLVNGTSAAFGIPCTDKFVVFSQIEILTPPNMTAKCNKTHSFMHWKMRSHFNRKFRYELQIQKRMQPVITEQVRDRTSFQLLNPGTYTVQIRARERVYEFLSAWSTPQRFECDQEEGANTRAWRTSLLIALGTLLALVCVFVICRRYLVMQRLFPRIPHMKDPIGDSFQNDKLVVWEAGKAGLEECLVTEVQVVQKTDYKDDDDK

[5] = biological target: T5, IL-3Rα/GM-CSFRα chimeric protein, region 7 (192-GIPCTDK-198) of IL-3Rα replaced by GM-CSFRα sequence, on … (human, UniProt P26951 19-378); assay: as above
T5 construct: also called Region 7 (B)
T5 chain: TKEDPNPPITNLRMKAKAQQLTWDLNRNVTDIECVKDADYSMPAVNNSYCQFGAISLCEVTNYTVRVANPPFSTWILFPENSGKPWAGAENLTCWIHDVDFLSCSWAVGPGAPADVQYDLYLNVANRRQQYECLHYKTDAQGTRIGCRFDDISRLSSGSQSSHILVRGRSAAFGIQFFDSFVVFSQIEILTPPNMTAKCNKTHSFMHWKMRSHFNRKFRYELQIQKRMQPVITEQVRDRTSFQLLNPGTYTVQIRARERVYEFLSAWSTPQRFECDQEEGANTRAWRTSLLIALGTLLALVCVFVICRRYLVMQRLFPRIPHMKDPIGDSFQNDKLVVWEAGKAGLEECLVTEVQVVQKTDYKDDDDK

B1: Old6 anti-human IL-3Rα human antibody (antibody, human IgG1, V domains shown)
VH: EVQLVESGGGLVKPGGSLRLSCAASGFTFSSHNMNWVRQAPGKGLEWVSSISSSSSYIYYADSVKGRFTISRDNAKNSLYLQMNSLRAEDTAVYYCAREDWGYFDYWGQGTLVTVSS
VL: AIQLTQSPSSLSASVGDRVTITCRASQGISSDLAWYQQKPGKAPKLLIYDASSLESGVPSRFSGSGSGTDFTLTISSLQPEDFATYYCQQFNSYPFTFGPGTKVDIK
notes: Human antibody
binding result [1]: no binding (tested: 1 µg/ml) | binding result [2]: no binding (tested: 1 µg/ml) | Kd [3]: 1.26 nM

B2: chimeric 7G3 antibody (mouse 7G3 variable regions, human IgG1 constant region) (antibody, V domains shown)
VH: EVQLQQSGPELVKPGASVKMSCKASGYTFTDYYMKWVKQSHGKSLEWIGDIIPSNGATFYNQKFKGKATLTVDRSSSTAYMHLNSLTSEDSAVYYCTRSHLLRASWFAYWGQGTLVTVSA
VL: DFVMTQSPSSLTVTAGEKVTMSCKSSQSLLNSGNQKNYLTWYLQKPGQPPKLLIYWASTRESGVPDRFTGSGSGTDFTLTISSVQAEDLAVYYCQNDYSYPYTFGGGTKLEIK
notes: also called 7G3 (Chimeric antibody)
Kd [3]: 1.88 nM

B3: Old17 anti-human IL-3Rα human antibody (antibody, human IgG1, V domains shown)
VH: QVQLVQSGAEVKKPGSSVKVSCKTSGGTFSNFAISWVRQAPGQGLEWMGGIIPIFGSTNYAQKFQGRVTINADESTSTAYMELSSLRSEDTAVYYCAGGDKYGPYYFHYWGQGTLVTVSS
VL: DIQMTQSPSSLSASVGDRVTITCRASQGISSWLAWYQQKPEKAPKSLIYAASSLQSGVPSRFSGSGSGTDFTLTISSLQPEDFATYYCQQYNSYPYTFGQGTKLEIK
notes: Human antibody; recombinant form in N5KG1-Val Lark vector (human IgG1, kappa)
Kd [3]: 1.43 nM

B4: New102 anti-human IL-3Rα human antibody (antibody, human IgG1, V domains shown)
VH: QVQLVQSGAEVKKPGSSVKVSCMASGGTVSSYAISWVRQAPGQGLEWMGEIIPIFGIVNYAQKFQGRVTITADESTNTAYMELSSLRSEDTAIYYCARETAVAGILGYWGQGTLVTVSS
VL: DIQMTQSPSSLSASVGDRVTITCRASQGISSWLAWYQQKPEKAPKSLIYAASSLQSGVPSRFSGSGSGTDFTLTISSLQPEDFATYYCQQYNSYPYTFGQGTKLEIK
notes: as for B3
binding result [1]: no binding (tested: 1 µg/ml) | binding result [4]: no binding (tested: 1 µg/ml) | binding result [5]: no binding (tested: 1 µg/ml) | Kd [3]: 0.798 nM

B5: Old4 anti-human IL-3Rα human antibody (antibody, human IgG1, V domains shown)
VH: QVQLLQSGAEVKKPGSSVKVSCKASGGTFSTYAISWVRQAPGQGLEWMGGIIPIFGIVNYAQKFQGRVTITADESTSTAYMELSSLRSEDTAVYYCARGGGSGPDVLDIWGQGTMVTVSS
VL: VIWMTQSPSLLSASTGDRVTISCRMSQGIRSYLAWYQQKPGKAPELLIYAASTLQSGVPSRFSGSGSGTDFTLTISSLQSEDFATYYCQQYYSFPYTFGQGTKLEIK
notes: Human antibody from KM mouse hybridoma; recombinant form made in N5KG1-Val Lark vector (human IgG1, kappa) in HEK293F
binding result [1]: no binding (tested: 1 µg/ml)

B6: Old5 anti-human IL-3Rα human antibody (antibody, human IgG1, V domains shown)
VH: QVQLVQSGAEVKKPGSSVKVSCKASGGTFSTYAISWVRQAPGQGLEWMGGLIPIFDIENYAQKFQGRVTITADESTSTVYMELSSLRSEDTAMYYCARGGGSGPDVLDIWGQGTMVTVSS
VL: VIWMTQSPSLLSASTGDRVTISCRMSQGIRSYLAWYQQKPGKAPELLIYAASTLQSGVPSRFSGSGSGTDFTLTISSLQSEDFATYYCQQYYSFPYTFGQGTKLEIK
notes: as for B3
binding result [1]: no binding (tested: 1 µg/ml)
